From patent KR20190053464A (dated 2019)

B1: 7H3C11FW (antibody, V domains shown)
VH: QVQLVESGGGVVQPGRSLRLSCAASGFAFGSYTMHWVRQAPGKGLEWVTLISFDGRSKLYGDSVKGRFTISRDNSKNSLYLQMNSLRAEDTAVYYCARGSVRGEAAFDLWGQGTLVTVSS
VL: SYELTQPPSVSVSPGQTASITCSGDNLRTKYVSWYQQKPGQSPVLVIYQDTRRPSGIPERFSGSNSGNTATLTISGTQAMDEADYYCMTWDVDTTSMIFGGGTKLTVL

Molecular target: 인간 IL-17A (human IL-17A, R&D system) (human, UniProt Q16552 20-155, limits assumed)
Assay: cell-based or functional assay

Chain of 인간 IL-17A (human IL-17A, R&D system) (Q16552 20-155 limits assumed): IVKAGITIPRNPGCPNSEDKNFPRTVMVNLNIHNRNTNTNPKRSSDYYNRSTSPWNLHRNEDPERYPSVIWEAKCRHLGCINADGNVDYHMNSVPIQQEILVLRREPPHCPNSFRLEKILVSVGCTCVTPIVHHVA

Molecule	IC50 of inhibition of IL-17A-dependent IL-6 secretion, HeLa cells [nM]	fold better IC50 than secukinumab in-house, HeLa IL-6 assay [fold]
세쿠키누맙 (secukinumab), made in-house (antibody)	4.16	–
B1	2.88	~1.4
